{"source": "patent US20240307501A1", "about": "(priority 2021, published 2024)", "origin": "cited, not measured here", "details": "chronic doses of glucagon, patients with CHI, across 2 studies"}
{"substance": "Glucagon: native glucagon used off-label by IV or continuous SC infusion for CHI", "values": [{"measurement": "patients with erythema necrolyticum", "result": "4 out of 11"}]}
